The text below walks through data of patent publication US11499162B2, “Plants having increased tolerance to herbicides” (BASF SE, priority 2016, dated 2022).

The labels stand for the following.
B1: Q71NL92AD328G: mutated TriA variant of SEQ ID NO: 2 (protein)
chain: MQTLSIQHGTLVTMDQYRRVLGDSWVHVQDGRIVALGVHAESVPPPADRVIDARGKVVLPGFINAHTHVNNILLRGGPSHGRQLYDWLFNVAYPGQKAMRPEDVAVAVRLYCAEAVRSGITTINDNADSAIYPGNIEAAMAVYGEVGVRVVYARMFFDRMDGRIQGYVDALKARSPQVELCSIMEETAVAKDRITALSDQYHGTAGGRISVWPAPAITPAVTVEGMRWAQAFARDRAVMWTLHMAESDHDERLHWMSPAEYMECYGLLDERLQVAHCVYFDRKDVRLLHRHNVKVASQVVSNAYLGSGVAPVPEMVERGMAVGIGTDGGNCNDSVNMIGDMKFMAHIHRAVHRDADVLTPEKILEMATIDGARSLGMDHEIGSIETGKRADLILLDLRHPQTTPHHHLAATIVFQAYGNEVDTVLIDGNVVMENRRLSFLPPERELAFLEEAQSRATAILQRANMVANPAWRSL
modifications: Pseudomonas
B2: Q71C: mutated TriA variant of SEQ ID NO: 2 (protein)
chain: MQTLSIQHGTLVTMDQYRRVLGDSWVHVQDGRIVALGVHAESVPPPADRVIDARGKVVLPGFINAHTHVNCILLRGGPSHGRQLYDWLFNVLYPGQKAMRPEDVAVAVRLYCAEAVRSGITTINDNADSAIYPGNIEAAMAVYGEVGVRVVYARMFFDRMDGRIQGYVDALKARSPQVELCSIMEETAVAKDRITALSDQYHGTAGGRISVWPAPAITPAVTVEGMRWAQAFARDRAVMWTLHMAESDHDERLHWMSPAEYMECYGLLDERLQVAHCVYFDRKDVRLLHRHNVKVASQVVSNAYLGSGVAPVPEMVERGMAVGIGTDDGNCNDSVNMIGDMKFMAHIHRAVHRDADVLTPEKILEMATIDGARSLGMDHEIGSIETGKRADLILLDLRHPQTTPHHHLAATIVFQAYGNEVDTVLIDGNVVMENRRLSFLPPERELAFLEEAQSRATAILQRANMVANPAWRSL
modifications: Pseudomonas
B3: L92AY93L: mutated TriA variant of SEQ ID NO: 2 (protein)
chain: MQTLSIQHGTLVTMDQYRRVLGDSWVHVQDGRIVALGVHAESVPPPADRVIDARGKVVLPGFINAHTHVNQILLRGGPSHGRQLYDWLFNVALPGQKAMRPEDVAVAVRLYCAEAVRSGITTINDNADSAIYPGNIEAAMAVYGEVGVRVVYARMFFDRMDGRIQGYVDALKARSPQVELCSIMEETAVAKDRITALSDQYHGTAGGRISVWPAPAITPAVTVEGMRWAQAFARDRAVMWTLHMAESDHDERLHWMSPAEYMECYGLLDERLQVAHCVYFDRKDVRLLHRHNVKVASQVVSNAYLGSGVAPVPEMVERGMAVGIGTDDGNCNDSVNMIGDMKFMAHIHRAVHRDADVLTPEKILEMATIDGARSLGMDHEIGSIETGKRADLILLDLRHPQTTPHHHLAATIVFQAYGNEVDTVLIDGNVVMENRRLSFLPPERELAFLEEAQSRATAILQRANMVANPAWRSL
modifications: Pseudomonas
B4: L92AY93A: mutated TriA variant of SEQ ID NO: 2 (protein)
chain: MQTLSIQHGTLVTMDQYRRVLGDSWVHVQDGRIVALGVHAESVPPPADRVIDARGKVVLPGFINAHTHVNQILLRGGPSHGRQLYDWLFNVAAPGQKAMRPEDVAVAVRLYCAEAVRSGITTINDNADSAIYPGNIEAAMAVYGEVGVRVVYARMFFDRMDGRIQGYVDALKARSPQVELCSIMEETAVAKDRITALSDQYHGTAGGRISVWPAPAITPAVTVEGMRWAQAFARDRAVMWTLHMAESDHDERLHWMSPAEYMECYGLLDERLQVAHCVYFDRKDVRLLHRHNVKVASQVVSNAYLGSGVAPVPEMVERGMAVGIGTDDGNCNDSVNMIGDMKFMAHIHRAVHRDADVLTPEKILEMATIDGARSLGMDHEIGSIETGKRADLILLDLRHPQTTPHHHLAATIVFQAYGNEVDTVLIDGNVVMENRRLSFLPPERELAFLEEAQSRATAILQRANMVANPAWRSL
modifications: Pseudomonas
B5: L92AY93F: mutated TriA variant of SEQ ID NO: 2 (protein)
chain: MQTLSIQHGTLVTMDQYRRVLGDSWVHVQDGRIVALGVHAESVPPPADRVIDARGKVVLPGFINAHTHVNQILLRGGPSHGRQLYDWLFNVAFPGQKAMRPEDVAVAVRLYCAEAVRSGITTINDNADSAIYPGNIEAAMAVYGEVGVRVVYARMFFDRMDGRIQGYVDALKARSPQVELCSIMEETAVAKDRITALSDQYHGTAGGRISVWPAPAITPAVTVEGMRWAQAFARDRAVMWTLHMAESDHDERLHWMSPAEYMECYGLLDERLQVAHCVYFDRKDVRLLHRHNVKVASQVVSNAYLGSGVAPVPEMVERGMAVGIGTDDGNCNDSVNMIGDMKFMAHIHRAVHRDADVLTPEKILEMATIDGARSLGMDHEIGSIETGKRADLILLDLRHPQTTPHHHLAATIVFQAYGNEVDTVLIDGNVVMENRRLSFLPPERELAFLEEAQSRATAILQRANMVANPAWRSL
modifications: Pseudomonas
B6: L92AF89A: mutated TriA variant of SEQ ID NO: 2 (protein)
chain: MQTLSIQHGTLVTMDQYRRVLGDSWVHVQDGRIVALGVHAESVPPPADRVIDARGKVVLPGFINAHTHVNQILLRGGPSHGRQLYDWLANVAYPGQKAMRPEDVAVAVRLYCAEAVRSGITTINDNADSAIYPGNIEAAMAVYGEVGVRVVYARMFFDRMDGRIQGYVDALKARSPQVELCSIMEETAVAKDRITALSDQYHGTAGGRISVWPAPAITPAVTVEGMRWAQAFARDRAVMWTLHMAESDHDERLHWMSPAEYMECYGLLDERLQVAHCVYFDRKDVRLLHRHNVKVASQVVSNAYLGSGVAPVPEMVERGMAVGIGTDDGNCNDSVNMIGDMKFMAHIHRAVHRDADVLTPEKILEMATIDGARSLGMDHEIGSIETGKRADLILLDLRHPQTTPHHHLAATIVFQAYGNEVDTVLIDGNVVMENRRLSFLPPERELAFLEEAQSRATAILQRANMVANPAWRSL
modifications: Pseudomonas
B7: L92AF89AY93A: mutated TriA variant of SEQ ID NO: 2 (protein)
chain: MQTLSIQHGTLVTMDQYRRVLGDSWVHVQDGRIVALGVHAESVPPPADRVIDARGKVVLPGFINAHTHVNQILLRGGPSHGRQLYDWLANVAAPGQKAMRPEDVAVAVRLYCAEAVRSGITTINDNADSAIYPGNIEAAMAVYGEVGVRVVYARMFFDRMDGRIQGYVDALKARSPQVELCSIMEETAVAKDRITALSDQYHGTAGGRISVWPAPAITPAVTVEGMRWAQAFARDRAVMWTLHMAESDHDERLHWMSPAEYMECYGLLDERLQVAHCVYFDRKDVRLLHRHNVKVASQVVSNAYLGSGVAPVPEMVERGMAVGIGTDDGNCNDSVNMIGDMKFMAHIHRAVHRDADVLTPEKILEMATIDGARSLGMDHEIGSIETGKRADLILLDLRHPQTTPHHHLAATIVFQAYGNEVDTVLIDGNVVMENRRLSFLPPERELAFLEEAQSRATAILQRANMVANPAWRSL
modifications: Pseudomonas

This data set is classed as biochemical. Conditions: pH 7.2. An outline of the steps: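 Expression: BL21(DE3) Gold, pET24d N-His, pGro7, 0.1 mM IPTG, 25° C, 20 h. Reaction: 25 mM Na phosphate pH 7.2, substrate 1 nM to 10 nM, 30° C. Analysis: UPLC-HR-MS; % degradation vs empty vector.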
As for B1, the “Degradation in % of 6-cyclopentyl-N4-(2,3,4,5,6-pentafluorophenyl)-1,3,5-triazine-2,4-diamine” value is reported as 6% and the “Degradation in % of Melamine” value came out at 0%.

In the case of B2, the “Degradation in % of 6-cyclopentyl-N4-(2,3,4,5,6-pentafluorophenyl)-1,3,5-triazine-2,4-diamine” value was found to be 0% and the “Degradation in % of Melamine” value was 5%.

As to B3, the “Degradation in % of 6-cyclopentyl-N4-(2,3,4,5,6-pentafluorophenyl)-1,3,5-triazine-2,4-diamine” value is 99% and the “Degradation in % of Melamine” value is 100%.

Turning to B4, the “Degradation in % of 6-cyclopentyl-N4-(2,3,4,5,6-pentafluorophenyl)-1,3,5-triazine-2,4-diamine” value is recorded as 56% and the “Degradation in % of Melamine” value turned out to be 1%.

As for B5, the “Degradation in % of 6-cyclopentyl-N4-(2,3,4,5,6-pentafluorophenyl)-1,3,5-triazine-2,4-diamine” value was 100% and the “Degradation in % of Melamine” value amounted to 100%.

For B6, the “Degradation in % of 6-cyclopentyl-N4-(2,3,4,5,6-pentafluorophenyl)-1,3,5-triazine-2,4-diamine” value stood at 100% and the “Degradation in % of Melamine” value was 100%.

Take B7: the “Degradation in % of 6-cyclopentyl-N4-(2,3,4,5,6-pentafluorophenyl)-1,3,5-triazine-2,4-diamine” value is recorded as 100% and the “Degradation in % of Melamine” value was 63%.
